Results: patent publication US7605231B2, “Gelatin derivatives and high-molecular micelle comprising the derivatives” (NOF Corporation, priority 2002, dated 2009)

Columns and labels:
[1] = Micelle form by affinity column (HiTrap Blue HP) that adsorbs gelatin; assay type: physicochemical; settings: pH 7.4 bonding buffer, 2M NaCl elution
Protocol: The forms of the core and the shell of micelle were studied using affinity column, which adsorbs gelatin. Namely, HiTrap (Trade Mark) Blue HP column (manufactured by Amersham Pharmacia Co., Ltd.) was washed with 10 ml of an isotonic phosphate buffer with a pH of 7.4 and thereafter, 0.5 ml of a PEG-grafted gelatin micelle solution was applied. 5 ml of the isotonic phosphate buffer with a pH of 7.4 was used as a bonding buffer and 5 ml of a 2M aqueous sodium chloride solution was used as an elution buffer. The solution was fractionated with each 0.4 ml portions and the gelatin in each of the fractions was measured by the Lowery method.
The forms of the core and the shell of the micelle was studied using affinity column in which gelatin was adsorbed. Namely, HiTrap (Trade Mark) Blue HP column (manufactured by Amersham Pharmacia Co., Ltd.) was washed with 10 ml of an isotonic phosphate buffer with a pH of 7.4 and thereafter, 0.5 ml of a PEG-grafted gelatin micelle solution was applied. 5 ml of the pH isotonic phosphate buffer with a pH of 7.4 was used as a bonding buffer and 5 ml of a 2M aqueous sodium chloride solution was used as an elution buffer. The solution was fractionated with each 0.4 ml portions and the gelatin in each fraction was measured by the Lowery method. […]

[2] = In vitro disintegration test in Japanese Pharmacopoeia first and second solutions, SDS-PAGE; assay type: physicochemical
Protocol: (§1) Of the various PEG-grafted gelatin derivatives prepared in Example 22, 50 mg of a gelatin derivative prepared by using 2-fold mols of PEG having a molecular weight of 5000 was dissolved in 1 ml of DDW (50 mg/mL). 500 μL of the resulting solution was added to 4.5 ml of each of a Japanese Pharmacopoeia first solution (pH 1.2), a second solution (pH 6.8), pepsin (10 U/mL)+first solution or trypsin (10 U/mL)+second solution and subjected to disintegration test. The test was carried out under the conditions based on Japanese Pharmacopoeia disintegration test. The decomposition of the gelatin was evaluated by carrying out SDS-PAGE of the sample prepared after the test. Further, 500 μL of the sample was added to 4.5 mL of DDW to prepare a control group.
(§2) 50 mg of gelatin, which was not subjected to PEG grafting, was dissolved in 1 ml of DDW. 500 μL of the resulting solution was added to 4.5 mL of each of DDW, first solution, second solution, pepsin+first solution and trypsin+second solution, respectively, and then, subjected to disintegration test. The test was carried out under the conditions based on Japanese Pharmacopoeia disintegration test. The decomposition of the gelatin was evaluated by carrying out SDS-PAGE of the sample prepared after the test.

[3] = Solubilizing of paclitaxel; assay type: physicochemical; settings: 30 μL of 10 mg/ml paclitaxel in ethanol + 500 μL of 2% aqueous solution
Protocol: A 10 mg/ml ethanol solution of paclitaxel was prepared as (a PTX solution).
A 2% gelatin aqueous solution was prepared as a gelatin solution.

trypsin = test: In vitro stability test to enzyme: trypsin + second solution, SDS-PAGE; assay type: in vitro ADME; settings: trypsin (10 U/mL) + second solution
Protocol: as §1, §2

pepsin = test: In vitro stability test to enzyme: pepsin + first solution, SDS-PAGE; assay type: in vitro ADME; settings: pepsin (10 U/mL) + first solution
Protocol: as §1, §2

[4] = Critical micelle formation concentration (CMC) by PNA incorporation; assay type: physicochemical; settings: isotonic phosphate buffer pH 7.4, PNA incorporation
Protocol: With regard to the PEG-grafted gelatin prepared, the critical micelle formation concentration (CMC) was measured. The CMC was measured by incorporating N-phenyl-1-naphtylamine (PNA) into the micelle. Using an isotonic phosphate buffer with a pH of 7.4, various concentrations—having PEG-grafted gelatin aqueous solutions were prepared. 0.1 ml of the PNA solution dissolved in methanol having a concentration of 5.0×10^−3M was added to 2 ml of the PEG-grafted gelatin solution and stirred for 2 minutes. Thereafter, the absorbance at a wavelength of 500 nm was measured using a spectrophotometer.
With regard to the PEG-grafted succinated gelatin prepared, the critical micelle forming concentration (CMC) was measured. The CMC was measured by incorporating N-phenyl-1-naphtyl amine (PNA) into the micelle. Using an isotonic phosphate buffer with a pH of 7.4, PEG-grafted succinated gelatin aqueous solutions with various concentrations were prepared. […] Thereafter, the absorbance at a wavelength of 500 nm was measured using a spectrophotometer.
Micelle solutions were prepared in accordance with the method of Example 3 from the PEG-grafted gelatin derivatives prepared in Example 22 and the CMC of each derivative was measured in accordance with Example 5.

macrophage = test: Test of macrophage adhesion property (SEM); assay type: cell-based, mouse; settings: crosslinked with heating at 160° C. for 3 hours, cultured 24 hours
Protocol: 1 g of gelatin or a derivative thereof was dissolved in 10 mL of purified water while heating. This resulting polymer solution was injected into a PFA made laboratory dish and allowed to stand at 4° C. for 12 hours to conduct gelation sufficiently. The resulting gel was lyophilized and then subjected to cross-linking treatment with heating at 160° C. for 3 hours under reduced pressure in vacuum.
First, to 10-week old female ddy mouse, 2 ml of a previously sterilized Brewer's thioglycolate medium (manufactured by Difco Co.) was administered to intraperitoneal. After 5 days, the mouse was killed with blood-letting and 5 ml of PBS(−) cooled at 4° C. was administered intraperitoneal. After 5 minutes, about 4 ml of intraperitoneal effusion was recovered and was centrifuged at 8000 revolution/min for about 5 minutes to prepare a cell mass of effused macrophage. To the cell mass, 2 ml of RPMI1640 medium containing 10% FCS was added and sufficiently suspended.
Next, a specimen prepared in accordance with “the method of preparing the specimen for evaluating adhesion of macrophage” according to the above-mentioned (1) was sufficiently swelled with a RPMI1640 medium to prepare a specimen for evaluating the adhesion property of macrophage. […] Surface observation was carried out by a scanning electron microscope (Hitachi Type S-3000N) and the adhesion of macrophage was evaluated.

With gelatin the “adsorption to affinity column” value [1] was “adsorbed to the affinity column”, the “lowering of the gelatin molecular weight” value ([2]; Japanese Pharmacopoeia first solution (pH 1.2)) was “a lowering of the gelatin molecular weight was confirmed” and the “lowering of the gelatin molecular weight” value ([2]; Japanese Pharmacopoeia second solution (pH 6.8)) was “except for the control group and the second solution, a lowering of the gelatin molecular weight was confirmed”. The “appearance on mixing with paclitaxel solution” value [3] was “white precipitation”, the “lowering of the gelatin molecular weight” value (trypsin) was “a lowering of the gelatin molecular weight was confirmed” and the “lowering of the gelatin molecular weight” value (pepsin) was “a lowering of the gelatin molecular weight was confirmed”. The “CMC (whether admitted)” value [4] was “CMC was not admitted” and the “adhesion of macrophage to the surface” value (macrophage) was “tightly covered with the cells such as macrophage”.
